Data on 1 molecule can be found in US20160038588A1, “Myostatin Antagonism in Human Subjects” (AMGEN INC., priority 2013, published 2016).

As usually defined, the Kd is the concentration at which binding is half-saturated.

This assay deals with T1, myostatin (Homo sapiens, UniProt O14793).
T1 construct: To produce mature myostatin, the pooled promyostatin was enzymatically cleaved between the propeptide and mature myostatin C terminal; made in house
T1 sequence (O14793 267-375): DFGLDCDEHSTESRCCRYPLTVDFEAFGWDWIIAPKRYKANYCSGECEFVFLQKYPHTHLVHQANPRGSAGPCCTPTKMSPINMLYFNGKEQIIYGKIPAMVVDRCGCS
Nature of the assay: BIAcore affinity analysis on immobilized myostatin. Type of assay: binding. To be noted: Biacore assay. The source says:
The antagonists including the binding agents described herein can be tested for their ability to bind myostatin and inhibit or block myostatin activity. Any number of assays or animal tests may be used to determine the ability of the agent to inhibit or block myostatin activity. Several assays used for characterizing the peptides and peptibodies of the present invention are described in the Examples below. One assay is the C2C12 pMARE-luc assay which makes use of a myostatin-responsive cell line (C2C12 myoblasts) transfected with a luciferase reporter vector containing myostatin/activin response elements (MARE). Exemplary peptibodies are assayed by pre-incubating a series of peptibody dilutions with myostatin, and then exposing the cells to the incubation mixture. The resulting luciferase activity is determined, and a titration curve is generated from the series of peptibody dilutions. The IC50 (the concentration of peptibody to achieve 50% inhibition of myostatin activity as measured by luciferase activity) was then determined. […]
Direct binding assays were used to screen and rank the peptibodies in order of their ability to bind to immobilized myostatin. […] Peptibody binding kinetic parameters including ka (association rate constant), kd (dissociation rate constant) and KD (dissociation equilibrium constant) were determined using the BIA evaluation 3.1 computer program (Biacore, Inc.). […]

B1: ActRIIB/Fc: soluble receptor fusion protein actRIIB/Fc (R &D Systems) (protein)
chain: SGRGEAETRECIYYNANWELERTNQSGLERCEGEQDKRLHCYASWRNSSGTIELVKKGCWLDDFNCYDRQECVATEENPQVYFCCCEGNFCNERFTHLPEAGGPEVTYEPPPTAPT
modifications: left off: a dimerising Fc or GST
B1: the Kd was approximately 7 nM.
